Columns and labels:
Assay in all cases: pull-down binding Z-score (relative to library population); higher = stronger binding
[1] = system: TO-3-N3-2 (biotin conjugate); details: RNA library: Library-2
Method in brief: (§1)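 Binding is given as a Z-score against the library mean and standard deviation, calculated after removing the beads-only signal and averaging barcoded replicate probes without their highest and lowest values. Cy5- or Cy3-end-labelled RNA library (1 μg) was heat-folded in phosphate/NaCl/KCl buffer and incubated 60 min at 25 °C with streptavidin beads bearing 100 pmol of biotin-conjugated small molecule. After three washes, RNA eluted in hot SDS was hybridised to a DNA barcode microarray for 20 h at 55.5 °C.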

[2] = system: G-clamp-N3 (biotin conjugate); details: RNA library: Library-1 (pre-miRNA loops + repeats)
Method in brief: as §1

[3] = system: TO-3-N3 (biotin conjugate); details: RNA library: Library-2
Method in brief: as §1

TO-N3 (biotin conjugate) = details: RNA library: Library-2
Method in brief: as §1

[4] = system: TO-N3-2 (biotin conjugate); details: RNA library: Library-2
Method in brief: as §1

| Sequence | pull-down binding Z-score [1] | pull-down binding Z-score [2] | pull-down binding Z-score [3] | pull-down binding Z-score (TO-N3 (biotin conjugate)) | pull-down binding Z-score [4] |
| --- | --- | --- | --- | --- | --- |
| GCCAGUCAGCGCUCACAUUAAGGCUGAC [hsa-mir-2277] | -0.0851 | -0.612 | -0.289 | -0.222 | 0.0682 |
| UCCAGACGGAGAUGCGA [hsa-mir-611] | -0.000716 | -1.18 | -0.353 | 0.192 | 0.858 |
| GAGGUGGGAAGGCUGCCCCAAAUGGCCUCUAACAUCCCUUCCAGUCUCCUCCUC [hsa-mir-6127] | 0.23 | -0.236 | -0.0543 | 0.194 | 0.919 |
| GGGGCCUGUGGUCCC [hsa-mir-1268a] | -0.144 | 0.885 | -0.0124 | -0.282 | -0.675 |
| UGCUGUUGCUGUGAAAGCUGA [hsa-mir-6823] | 0.304 | -0.619 | 0.045 | 0.559 | 0.705 |
| GAACUUUUACGGUGAACCAGGAGGUUC [hsa-mir-629] | -0.139 | -0.428 | 0.0537 | -0.0515 | -0.0865 |
| UUCUCGGUUGGCCGCAGACUCGUACAAGAA [hsa-mir-219b] | 0.0156 | 0.895 | -0.383 | 0.0802 | 0.724 |
| GGCCUGGGAUUCCUGCCUUCUAGGUC [hsa-mir-8078] | -0.0252 | -0.278 | 0.742 | 0.707 | 0.307 |
| GGAGUUGAUGCACAGUUAUCCAGCUCC [hsa-mir-337] | -0.326 | -0.406 | -0.577 | -0.495 | -0.0382 |
| UCUUUCAUUUUGGAUUUGACU [hsa-mir-766] | -0.03 | -0.725 | 0.116 | -0.0798 | -0.612 |
| GGGUUGCAUCCUAAGCUGUGCUGGAGCUUCCC [hsa-mir-623] | 0.384 | -0.84 | 0.567 | 0.877 | 0.682 |
| UUUGCCAUUACUUUCAGUAGCAAA [hsa-mir-548c] | -0.441 | -0.417 | -0.131 | -0.379 | -0.814 |
| UAAGAGUAAUAGCUCUCUAGGUUAUUAUGAAUA [hsa-mir-5692c-1] | 0.109 | -0.762 | -0.283 | -0.449 | -0.712 |
| GAAGCUCCUAUAGCUCCUGUAGCUUC [hsa-mir-578] | 0.166 | -0.978 | 0.48 | 0.407 | 0.587 |
| CUUUCUGUUGUCUGAAAGAAAAGAAAA [hsa-mir-522] | 0.118 | -0.228 | -0.109 | 0.617 | 0.775 |
| AAGUCCGGCUCCAGAACCUGGACACCGCUCAG [hsa-mir-4638] | 0.379 | -1.24 | 0.52 | 0.898 | 1.09 |
| AUUGCACGUGUGUGAGGCGGGUGCAGU [hsa-mir-33b] | 0.102 | 0.513 | 0.626 | 0.7 | 0.592 |
| CAUUGUAACAUGAUAGUG [hsa-mir-4264] | -0.295 | 0.389 | -0.752 | -0.441 | -0.45 |
| CUCACAUGGAGUAAAAUAUGAU [hsa-mir-3134] | 0.194 | -1.71 | 0.744 | 0.711 | 0.206 |

| Sequence | pull-down binding Z-score [1] | pull-down binding Z-score [2] | pull-down binding Z-score [3] | pull-down binding Z-score (TO-N3 (biotin conjugate)) | pull-down binding Z-score [4] |
| --- | --- | --- | --- | --- | --- |
| AGCGCGGCGACCGUAACUCCU [hsa-mir-1237] | 0.313 | -0.629 | 0.152 | 0.724 | 1.65 |
| CAGUGGUGCCAUCUCCCCUG [hsa-mir-5008] | -0.353 | -1.49 | -0.377 | -0.122 | 0.471 |
| UGUUUAUGUUAUUUAUGGUUAAACA [hsa-mir-376c] | -0.269 | 0.239 | -0.655 | -0.887 | -0.967 |
| AGAAUUACUUAUCUGAGCCAAAGUAAUUCA [hsa-mir-1297] | 0.225 | -0.86 | 0.332 | 0.386 | -0.336 |
| CUGCCCCUCGAAUCUGCUCCACGAUUUGGGCAG [hsa-mir-4436a] | -0.181 | 0.401 | 0.0656 | -0.337 | -0.521 |
| GGGCGCCGGCGGCCGGGAGAUCCGCGCUUCCUGAAUCCCGGCCGGCCCGCCCGGCGCCC [hsa-mir-4497] | -0.00137 | -0.232 | 0.25 | 0.447 | 1.22 |
| CUGUGGUUUGCUGGCUGCCUCAG [hsa-mir-6736] | -0.353 | -0.566 | 0.2 | 0.467 | 0.776 |
| UUCAUAGGGAAGCCUUUCCAUGAA [hsa-mir-4738] | -0.446 | -0.912 | -0.542 | -0.559 | -0.574 |
| UGUAUAGUAUUAUUCAAUACC [hsa-mir-1912] | -0.0289 | 0.737 | -0.222 | -0.445 | -0.694 |
| GAGACAACUUCCCAGUCUC [hsa-mir-6717] | -0.519 | -0.0467 | -0.96 | -1.17 | -0.848 |
| UUCUUUGAGGAUCUGGCCUAAAGAG [hsa-mir-202] | 0.362 | -0.443 | 1.14 | 1.27 | 0.811 |
| CUGUUUCUGGUGAAAUAUUCAAACAG [hsa-mir-4433a] | -0.178 | -0.293 | 0.27 | -0.0687 | 0.256 |
| CUGCUCUCCCUGGCAGCAAG [hsa-mir-7109] | -0.0188 | 1.5 | -0.207 | 0.283 | 0.6 |
| GGACAUCCUUCCAUAGUAAAUAAGCGGUGCC [hsa-mir-8064] | 0.131 | -0.584 | -0.38 | -0.0974 | 0.218 |
| CUGAGGAAUUUGCUGGGAUAUGUCAG [hsa-mir-584] | 0.168 | 0.609 | 0.181 | 0.66 | 0.799 |
| UUUUGACAUUACUUUCAAAGACAAAA [hsa-mir-548f-1] | -0.214 | -1.58 | -0.771 | -1.09 | -1.23 |
| GGAGCCCGAGCAGCCGCGGUGAA [hsa-mir-7706] | 0.551 | -1.54 | 1.29 | 2.17 | 2.55 |
| UGUCUUGUGUCUGUAAGUAU [hsa-mir-1275] | -0.189 | -0.561 | -0.619 | -0.413 | -0.00915 |
| AGUGAGCUGAGAUCACGCAACU [hsa-mir-1273f] | 0.00609 | 0.617 | -0.37 | 0.206 | 0.629 |

| Sequence | pull-down binding Z-score [1] | pull-down binding Z-score [2] | pull-down binding Z-score [3] | pull-down binding Z-score (TO-N3 (biotin conjugate)) | pull-down binding Z-score [4] |
| --- | --- | --- | --- | --- | --- |
| UAUGCCUACAAAAUCCCUCCAGACUGGCAUA [hsa-mir-4666a] | -0.346 | -0.858 | -0.599 | -0.78 | -0.743 |
| CGGUGGUCCCUCCCG [hsa-mir-3687-1_3687-2] | -0.108 | -0.273 | 0.0703 | 0.14 | 0.832 |
| UUGCUCUUUGGUGGAGAUA [hsa-mir-6074] | -0.00756 | 0.646 | 0.509 | 0.505 | 0.241 |
| GUUCCUGUGAUUUUUC [hsa-mir-198] | -0.212 | -0.819 | -0.267 | -0.29 | -0.289 |
| UGUUCAUUCACAUGAUCAUAAGUGGACA [hsa-mir-4643] | 0.169 | 0.373 | 0.535 | 0.388 | -0.251 |
| GUCAUUACUUUCAAUAGC [hsa-mir-548p] | -0.254 | 0.0268 | -0.59 | -0.684 | -0.372 |
| CUGGCCAUCAGUGUGGGCUAAC [hsa-mir-6732] | -0.117 | -0.237 | -0.0637 | 0.33 | 0.569 |
| AUUCUGAUGAUCACCUAGCCAGAAU [hsa-mir-5583-2] | 0.566 | -0.301 | 1.52 | 1.45 | 0.317 |
| GGCAGGAGGCAGUGAAGUAACUUGC [hsa-mir-3934] | 0.583 | -0.848 | 1 | 1.43 | 1.2 |
| UCGGCACUAUUGUGACUGU [hsa-mir-7855] | -0.16 | -0.0938 | 0.693 | 0.611 | 0.0889 |
| UUUGCCUCUCUCAGAAAAUAGAGUCAAA [hsa-mir-4694] | -0.0805 | 0.239 | 0.229 | 0.157 | -0.759 |
| CGGGGCGGACGCAGAGCCGCGUUUAGUCUAUCG [hsa-mir-639] | -0.137 | -0.413 | 0.0365 | 0.593 | 1.12 |
| CCGGGGCAGGAGACCCCGCG [hsa-mir-1470] | -0.34 | -0.305 | -0.389 | -0.351 | 0.265 |
| GCCAGUGUUCAAGGGCCCCUCCUCUAGUACUCCCUGUUUGUGUUCUGCCACUGA [hsa-mir-6857] | 0.527 | -0.797 | 0.324 | 1.1 | 1.37 |
| GACGUGAAGGGACCACAUCCCGCUUCAUGUC [hsa-mir-4697] | -0.362 | -0.0598 | 0.541 | 0.374 | 0.229 |
| CCAGGCCCCACGGAGAACCAGGGCACCUGG [hsa-mir-8058] | -0.353 | 0.303 | -0.288 | -0.188 | 0.492 |
| GGGGAUGGACUGGAAGUGGGCAGCAUGGAGCUGACCUUCAUCAUGGCUUGGCCAACAUAAUGCCUC [hsa-mir-1236] | 1.33 | -0.0946 | 1.72 | 1.98 | 1.38 |
| UGGAGGAGUCUGGUGGCCUGUUCUCUU [hsa-mir-6754] | -0.0949 | -0.0952 | -0.348 | 0.123 | 0.707 |
| GGCCACCCAGGGAGUAAGUAGCC [hsa-mir-4480] | 0.908 | 0.515 | 2.34 | 2.09 | 1.42 |

— the supplement of paper PMC11865577
